T1: FcγRIIb (human, UniProt P31994 43-217)
T1 construct: extracellular domain; also called FcgRIIb; CD32B
T1 sequence (looked up): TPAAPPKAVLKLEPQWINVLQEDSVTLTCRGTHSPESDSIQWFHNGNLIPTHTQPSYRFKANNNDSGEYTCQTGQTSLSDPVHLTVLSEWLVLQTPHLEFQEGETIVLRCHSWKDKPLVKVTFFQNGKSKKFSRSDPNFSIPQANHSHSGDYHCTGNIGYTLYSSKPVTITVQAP

T2: FcγRIIa H (human, UniProt P12318 34-217)
T2 construct: extracellular domain; also called FcgRIIa H; 2aH; not shown: His tag at the C terminus
T2 sequence (looked up): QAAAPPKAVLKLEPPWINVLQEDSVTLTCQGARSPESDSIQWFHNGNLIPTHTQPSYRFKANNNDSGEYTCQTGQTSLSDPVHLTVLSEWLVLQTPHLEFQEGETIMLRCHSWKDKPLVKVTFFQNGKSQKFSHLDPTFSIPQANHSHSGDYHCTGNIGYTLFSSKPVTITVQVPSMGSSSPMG

T3: FcγRIIb (human, UniProt P31994 43-217)
T3 construct: extracellular domain; also called FcgRIIb; 2b; not shown: His tag at the C terminus
T3 sequence (looked up): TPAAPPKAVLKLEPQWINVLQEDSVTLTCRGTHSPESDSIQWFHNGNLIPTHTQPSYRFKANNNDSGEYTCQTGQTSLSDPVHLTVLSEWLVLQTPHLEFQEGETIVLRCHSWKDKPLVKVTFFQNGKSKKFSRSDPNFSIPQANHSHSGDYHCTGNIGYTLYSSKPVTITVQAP


What was measured:
FcγRIIb [1] = target: T1, FcγRIIb; assay: SPR (Biacore), captured antibody, soluble FcγR; relative to GpH7-A5/GpH7-B3/GpL16-k0 = 100
FcγRIa [2] = target: T4, FcγRIa (human, UniProt P12314 16-292); assay: as above
T4 construct: extracellular domain; also called FcgRI; CD64

FcγRIa [3] = target: T4, FcγRIa; assay: ratio of He/Con_1a to He/Con_2b (FcγRIa over FcγRIIb), SPR
How it was run: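 Measurements were made at 25 °C with HBS-EP+ as running buffer. Each antibody sat on a chip bearing its antigen peptide, amine-coupled or streptavidin-bound, while FcγR was passed over; 10 mM glycine-HCl, pH 1.5 removed captured antibody.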

FcγRIIa H [4] = target: T2, FcγRIIa H; assay: SPR (Biacore); He/Con_2aH divided by He/Con_2b (FcγRIIa H versus FcγRIIb)
Procedure: (§1) The heterodimerized antibodies He Abs in which one of the H chains was introduced with an alteration were assayed for their binding activities to each activating FcγR and inhibitory FcγR according to the method described in Example 4. […] The activating FcγRs in FIGS. 26, 27, 28, and 29 are FcγRIa, FcγRIIa (R), FcγRIIa (H), and FcγRIIIa, respectively.
(§2) Analysis of interaction between objective antibody and the FcγR was carried out using Biacore T100 (GE Healthcare). HBS-EP+ (GE Healthcare) was used as the running buffer, and the measurement temperature was set to 25° C. Chips produced by immobilizing the antigen peptide by the amine coupling method to a Series S Sencor Chip CM5 (GE Healthcare), or alternatively, chips produced by allowing preliminarily biotinylated antigen peptides to interact with and immobilize onto a Series S Sensor Chip SA (certified) (GE Healthcare) were used. Antibodies of interest were captured onto an antigen peptide-immobilized chip, and allowed to interact to each FcγR diluted with running buffer. To regenerate and repeatedly use the chip, the antibodies captured on the chip were washed off by reacting 10 mM glycine-HCl, pH 1.5.

FcγRIIb [5] = target: T3, FcγRIIb; assay: SPR (Biacore), FcγR passed over captured antibody; binding amount as % of control GpH7-A5/GpH7-B3/GpL16-k0 (=100)
Procedure: as §1, §2

FcγRIIa H [6] = target: T2, FcγRIIa H; assay: as above
Procedure: as §1, §2

T4 sequence (P12314 16-292): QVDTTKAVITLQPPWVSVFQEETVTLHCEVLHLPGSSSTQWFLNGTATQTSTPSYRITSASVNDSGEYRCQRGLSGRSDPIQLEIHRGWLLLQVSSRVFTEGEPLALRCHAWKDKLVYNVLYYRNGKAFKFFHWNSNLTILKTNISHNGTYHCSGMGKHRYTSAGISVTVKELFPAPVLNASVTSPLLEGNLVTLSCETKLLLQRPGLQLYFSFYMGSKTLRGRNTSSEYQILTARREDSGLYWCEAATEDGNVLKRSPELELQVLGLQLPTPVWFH

| Binder | He/Con_2b (FcγRIIb [1]) | He/Con_1a (FcγRIa [2]) | He_1a/2b (Ia/IIb) (FcγRIa [3]) | He_2aH/2b (IIaH/IIb) (FcγRIIa H [4]) [ratio] | He/Con_2b (FcγRIIb [5]) | He/Con_2aH (FcγRIIa H [6]) |
| --- | --- | --- | --- | --- | --- | --- |
| GpH7-A5/GpH7-B3 variant P329_13S/GpL16-k0 (antibody, human IgG1, kappa, He Ab; mutation in the GpH7-B3 chain only; also called He Ab) heavy 1: not shown heavy 2: not shown light: DIVMTQSPLSLPVTPGEPASISCQASESLVHSNRNTYLHWYLQKPGQSPQLLIYKVSNRFSGVPDRFSGSGSGTDFTLKISRVEAEDVGVYYCSQNTHVPPTFGQGTKVEIERTVAAPSVFIFPPSDEQLKSGTASVVCLLNNFYPREAKVQWKVDNALQSGNSQESVTEQDSKDSTYSLSSTLTLSKADYEKHKVYACEVTHQGLSSPVTKSFNRGEC | 41 % of control | 93.3 % of control | 2.27 |  |  |  |
| GpH7-A5/GpH7-B3 variant P329_01G/GpL16-k0 (antibody, human IgG1, kappa, He Ab: mutation in the GpH7-B3 H chain only) heavy 1: not shown heavy 2: not shown light: DIVMTQSPLSLPVTPGEPASISCQASESLVHSNRNTYLHWYLQKPGQSPQLLIYKVSNRFSGVPDRFSGSGSGTDFTLKISRVEAEDVGVYYCSQNTHVPPTFGQGTKVEIERTVAAPSVFIFPPSDEQLKSGTASVVCLLNNFYPREAKVQWKVDNALQSGNSQESVTEQDSKDSTYSLSSTLTLSKADYEKHKVYACEVTHQGLSSPVTKSFNRGEC |  |  |  | 1.32 | 41.7 relative, control = 100 | 54.9 relative, control = 100 |
| GpH7-A5/GpH7-B3 variant P329_16H/GpL16-k0 (antibody, human IgG1, kappa, He Ab; mutation in the GpH7-B3 chain only; also called He Ab) heavy 1: not shown heavy 2: not shown light: DIVMTQSPLSLPVTPGEPASISCQASESLVHSNRNTYLHWYLQKPGQSPQLLIYKVSNRFSGVPDRFSGSGSGTDFTLKISRVEAEDVGVYYCSQNTHVPPTFGQGTKVEIERTVAAPSVFIFPPSDEQLKSGTASVVCLLNNFYPREAKVQWKVDNALQSGNSQESVTEQDSKDSTYSLSSTLTLSKADYEKHKVYACEVTHQGLSSPVTKSFNRGEC | 39.1 % of control | 95.6 % of control | 2.45 |  |  |  |
| GpH7-A5/GpH7-B3 variant P329_18N/GpL16-k0 (antibody, human IgG1, kappa, He Ab; mutation in the GpH7-B3 chain only; also called He Ab) heavy 1: not shown heavy 2: not shown light: DIVMTQSPLSLPVTPGEPASISCQASESLVHSNRNTYLHWYLQKPGQSPQLLIYKVSNRFSGVPDRFSGSGSGTDFTLKISRVEAEDVGVYYCSQNTHVPPTFGQGTKVEIERTVAAPSVFIFPPSDEQLKSGTASVVCLLNNFYPREAKVQWKVDNALQSGNSQESVTEQDSKDSTYSLSSTLTLSKADYEKHKVYACEVTHQGLSSPVTKSFNRGEC | 40.4 % of control | 92.4 % of control | 2.29 |  |  |  |
| GpH7-A5/GpH7-B3 variant P329_15Y/GpL16-k0 (antibody, human IgG1, kappa, He Ab; mutation in the GpH7-B3 chain only; also called He Ab) heavy 1: not shown heavy 2: not shown light: DIVMTQSPLSLPVTPGEPASISCQASESLVHSNRNTYLHWYLQKPGQSPQLLIYKVSNRFSGVPDRFSGSGSGTDFTLKISRVEAEDVGVYYCSQNTHVPPTFGQGTKVEIERTVAAPSVFIFPPSDEQLKSGTASVVCLLNNFYPREAKVQWKVDNALQSGNSQESVTEQDSKDSTYSLSSTLTLSKADYEKHKVYACEVTHQGLSSPVTKSFNRGEC | 45.7 % of control | 95.6 % of control | 2.09 |  |  |  |
| GpH7-A5/GpH7-B3 variant A327_12R/GpL16-k0 (antibody, human IgG1, kappa, He Ab: mutation in the GpH7-B3 H chain only) heavy 1: not shown heavy 2: not shown light: DIVMTQSPLSLPVTPGEPASISCQASESLVHSNRNTYLHWYLQKPGQSPQLLIYKVSNRFSGVPDRFSGSGSGTDFTLKISRVEAEDVGVYYCSQNTHVPPTFGQGTKVEIERTVAAPSVFIFPPSDEQLKSGTASVVCLLNNFYPREAKVQWKVDNALQSGNSQESVTEQDSKDSTYSLSSTLTLSKADYEKHKVYACEVTHQGLSSPVTKSFNRGEC |  |  |  | 1.26 |  | 11.3 relative, control = 100 |
| GpH7-A5/GpH7-B3 variant P331_01G/GpL16-k0 (antibody, human IgG1, kappa, He Ab; mutation in the GpH7-B3 chain only; also called He Ab) heavy 1: not shown heavy 2: not shown light: DIVMTQSPLSLPVTPGEPASISCQASESLVHSNRNTYLHWYLQKPGQSPQLLIYKVSNRFSGVPDRFSGSGSGTDFTLKISRVEAEDVGVYYCSQNTHVPPTFGQGTKVEIERTVAAPSVFIFPPSDEQLKSGTASVVCLLNNFYPREAKVQWKVDNALQSGNSQESVTEQDSKDSTYSLSSTLTLSKADYEKHKVYACEVTHQGLSSPVTKSFNRGEC | 45.4 % of control | 85.3 % of control | 1.88 |  |  |  |
| GpH7-A5/GpH7-B3 variant L328_12R/GpL16-k0 (antibody, human IgG1, kappa, He Ab: mutation in the GpH7-B3 H chain only) heavy 1: not shown heavy 2: not shown light: DIVMTQSPLSLPVTPGEPASISCQASESLVHSNRNTYLHWYLQKPGQSPQLLIYKVSNRFSGVPDRFSGSGSGTDFTLKISRVEAEDVGVYYCSQNTHVPPTFGQGTKVEIERTVAAPSVFIFPPSDEQLKSGTASVVCLLNNFYPREAKVQWKVDNALQSGNSQESVTEQDSKDSTYSLSSTLTLSKADYEKHKVYACEVTHQGLSSPVTKSFNRGEC |  |  |  | 4.6 |  | 42.5 relative, control = 100 |
| GpH7-A5/GpH7-B3 variant P329_19Q/GpL16-k0 (antibody, human IgG1, kappa, He Ab; mutation in the GpH7-B3 chain only; also called He Ab) heavy 1: not shown heavy 2: not shown light: DIVMTQSPLSLPVTPGEPASISCQASESLVHSNRNTYLHWYLQKPGQSPQLLIYKVSNRFSGVPDRFSGSGSGTDFTLKISRVEAEDVGVYYCSQNTHVPPTFGQGTKVEIERTVAAPSVFIFPPSDEQLKSGTASVVCLLNNFYPREAKVQWKVDNALQSGNSQESVTEQDSKDSTYSLSSTLTLSKADYEKHKVYACEVTHQGLSSPVTKSFNRGEC | 30.7 % of control | 70.7 % of control | 2.31 |  |  |  |
| GpH7-A5/GpH7-B3 variant P329_14T/GpL16-k0 (antibody, human IgG1, kappa, He Ab; mutation in the GpH7-B3 chain only; also called He Ab) heavy 1: not shown heavy 2: not shown light: DIVMTQSPLSLPVTPGEPASISCQASESLVHSNRNTYLHWYLQKPGQSPQLLIYKVSNRFSGVPDRFSGSGSGTDFTLKISRVEAEDVGVYYCSQNTHVPPTFGQGTKVEIERTVAAPSVFIFPPSDEQLKSGTASVVCLLNNFYPREAKVQWKVDNALQSGNSQESVTEQDSKDSTYSLSSTLTLSKADYEKHKVYACEVTHQGLSSPVTKSFNRGEC | 37.9 % of control | 89.7 % of control | 2.37 |  |  |  |
| GpH7-A5/GpH7-B3 variant T335_12R/GpL16-k0 (antibody, human IgG1, kappa, He Ab; mutation in the GpH7-B3 chain only; also called He Ab) heavy 1: not shown heavy 2: not shown light: DIVMTQSPLSLPVTPGEPASISCQASESLVHSNRNTYLHWYLQKPGQSPQLLIYKVSNRFSGVPDRFSGSGSGTDFTLKISRVEAEDVGVYYCSQNTHVPPTFGQGTKVEIERTVAAPSVFIFPPSDEQLKSGTASVVCLLNNFYPREAKVQWKVDNALQSGNSQESVTEQDSKDSTYSLSSTLTLSKADYEKHKVYACEVTHQGLSSPVTKSFNRGEC | 91.9 % of control | 113 % of control | 1.23 |  |  |  |
| GpH7-A5/GpH7-B3 variant T335_11K/GpL16-k0 (antibody, human IgG1, kappa, He Ab; mutation in the GpH7-B3 chain only; also called He Ab) heavy 1: not shown heavy 2: not shown light: DIVMTQSPLSLPVTPGEPASISCQASESLVHSNRNTYLHWYLQKPGQSPQLLIYKVSNRFSGVPDRFSGSGSGTDFTLKISRVEAEDVGVYYCSQNTHVPPTFGQGTKVEIERTVAAPSVFIFPPSDEQLKSGTASVVCLLNNFYPREAKVQWKVDNALQSGNSQESVTEQDSKDSTYSLSSTLTLSKADYEKHKVYACEVTHQGLSSPVTKSFNRGEC | 91 % of control | 111 % of control | 1.22 |  |  |  |
| GpH7-A5/GpH7-B3 variant P329_20W/GpL16-k0 (antibody, human IgG1, kappa, He Ab; mutation in the GpH7-B3 chain only; also called He Ab) heavy 1: not shown heavy 2: not shown light: DIVMTQSPLSLPVTPGEPASISCQASESLVHSNRNTYLHWYLQKPGQSPQLLIYKVSNRFSGVPDRFSGSGSGTDFTLKISRVEAEDVGVYYCSQNTHVPPTFGQGTKVEIERTVAAPSVFIFPPSDEQLKSGTASVVCLLNNFYPREAKVQWKVDNALQSGNSQESVTEQDSKDSTYSLSSTLTLSKADYEKHKVYACEVTHQGLSSPVTKSFNRGEC | 45.1 % of control | 96.9 % of control | 2.15 |  |  |  |
| GpH7-A5/GpH7-B3 variant L328_11K/GpL16-k0 (antibody, human IgG1, kappa, He Ab: mutation in the GpH7-B3 H chain only) heavy 1: not shown heavy 2: not shown light: DIVMTQSPLSLPVTPGEPASISCQASESLVHSNRNTYLHWYLQKPGQSPQLLIYKVSNRFSGVPDRFSGSGSGTDFTLKISRVEAEDVGVYYCSQNTHVPPTFGQGTKVEIERTVAAPSVFIFPPSDEQLKSGTASVVCLLNNFYPREAKVQWKVDNALQSGNSQESVTEQDSKDSTYSLSSTLTLSKADYEKHKVYACEVTHQGLSSPVTKSFNRGEC |  |  |  | 4.27 |  | 32.2 relative, control = 100 |
